In assay [1] the target is T1, A1 domain of vWF (UniProt P04275 1261-1468, limits assumed).
T1 construct: domain: A1 domain; also called vWF A1 domain
Briefly: SPR (BIAcore), vWF A1 domain on sensor-chip. On the technique in general: In SPR one partner is held on a chip, and binding of the other changes the refractive index at the surface.
Protocol: (§1) The kinetic constants, kₒₙ and koff, were deduced from the obtained sensorgrams and used to calculate the equilibrium dissociation constant, KD. […] For these experiments, the samples were diluted to a 2 nM concentration. The initial binding rate was determined from the association phase of the sensorgram by linear fitting of the data points obtained between 5 and 25 seconds after the injection start and the reported value is the average of 5 independent measurements.

Assay [2] has as its target T1, A1 domain of vWF. Briefly: BIAcore initial binding rate, vWF A1 domain on sensor-chip, stored sample.
Protocol: as §1
The target in assay [3] is T1, A1 domain of vWF. Description: SPR (BIAcore), immobilized vWF A1 domain; M83A mutant.
Protocol: as §1
For assay [4], the target named is T1, A1 domain of vWF. Description: SPR (BIAcore), immobilized vWF A1 domain; M34A mutant.
Protocol: as §1
In assay [5] the target is T1, A1 domain of vWF. Description: SPR (BIAcore), vWF A1 domain on sensor-chip. The source holds these as a separate data set.
Protocol: as §1
The target of assay [6] is T1, A1 domain of vWF. Description: SPR (BIAcore), immobilized vWF A1 domain; M78A mutant.
Protocol: as §1
Assay [7] has as its target T1, A1 domain of vWF. Briefly: SPR (Biacore), A1 domain of VWF.
In assay [8] the target is T2, human RANKL (human, UniProt O14788 140-317, limits assumed).
T2 sequence (looked up): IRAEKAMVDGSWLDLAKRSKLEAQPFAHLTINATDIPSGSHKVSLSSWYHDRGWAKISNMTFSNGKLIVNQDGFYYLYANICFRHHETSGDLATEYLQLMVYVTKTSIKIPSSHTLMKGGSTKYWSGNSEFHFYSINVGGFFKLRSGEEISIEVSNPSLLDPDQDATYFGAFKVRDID
Briefly: AlphaScreen competition against the human RANKL / human RANK-Fc interaction. In general terms: Bead proximity is the source of the signal in Alpha formats.
Protocol: (§2) Finally, streptavidin coated donor beads (20 ug/ml) were added. After 1 hour of incubation plates were read on the Envison Alphascreen reader (PerkinElmer). All experiments were performed in duplicate.

The target of assay [9] is T2, human RANKL. Description: AlphaScreen competition: Nanobody titrated against the interaction of human RANKL (1 nM) with biotinylated human RANK-Fc (3 nM); acceptor beads with anti-RANKL MAb BN-12, streptavidin donor beads.
Protocol: as §2
The target in assay [10] is T1, A1 domain of vWF. Briefly: PLA potency assay (Biacore) on RPC fraction, first experiment.
Protocol: (§3) To determine the potency (i.e. looking at affinity measurements) of the −18Da product related variant, post-peak 1 was collected during RP-HPLC separation and directly measured in the PLA potency assay. Similar to what was done for pre-peak 1, the elution fraction representing post-peak 1 was first dried using a speedvac (miVac Duo Concentrator, Genevac) and then re-solubilized in PBS. […] Three independent but slightly different experiments were performed. In a first experiment the concentration after reconstitution was determined spectrophotometrically and no Tween was added to the PBS. In a second experiment, 0.02% Tween was present in the PBS at the time of reconstitution of the dried material (to prevent loss of protein from the relatively dilute samples) and the concentration was deduced from the peak area in a re-analysis by RP-HPLC. The RPC re-analysis also confirmed the identity of the isolated material. In a third experiment, we additionally diluted the purified main peak material to about the same concentration as the post-peak variant so to eliminate as much as possible any dissimilarities between the main and the post-peak samples. […]
For assay [11], the target named is T1, A1 domain of vWF. Description: PLA potency assay (Biacore) on RPC fraction, second experiment.
Protocol: as §3
For assay [12], the target named is T1, A1 domain of vWF. Briefly: Biacore potency assay.

B1: SEQ ID NO: 2 D62A (VHH)
VHH: EVQLVESGGGLVQPGGSLRLSCAASGRTFSYNPMGWFRQAPGKGRELVAAISRTGGSTYYPASVEGRFTISRDNAKRMVYLQMNSLRAEDTAVYYCAAAGVRAEDGRVRTLPSEYTFWGQGTQVTVSS
Regarding B1, the equilibrium dissociation constant (Kd) (in general, the free concentration of one partner at which half of the binding sites on the other are occupied at equilibrium, for simple one-to-one binding) with A1 domain of vWF [1] amounted to 1 nM. For the same molecule, in the assay with A1 domain of vWF [2], the “% activity after 4 wks at 37° C. (initial binding rate against time zero)” value (from here on “% activity after 4 wks”) is 88.4% and the “% activity after 8 wks at 37° C. (initial binding rate against time zero)” value (“% activity after 8 wks” for short) turned out to be 87.4%.

B2: SEQ ID NO: 2 M83A (VHH)
VHH: EVQLVESGGGLVQPGGSLRLSCAASGRTFSYNPMGWFRQAPGKGRELVAAISRTGGSTYYPDSVEGRFTISRDNAKRMVYLQANSLRAEDTAVYYCAAAGVRAEDGRVRTLPSEYTFWGQGTQVTVSS
As to B2, in the assay with A1 domain of vWF [3], the Kd came to 1.29 nM. This lies in the single-digit nanomolar range.

B3: SEQ ID NO: 2 D105Q (VHH)
VHH: EVQLVESGGGLVQPGGSLRLSCAASGRTFSYNPMGWFRQAPGKGRELVAAISRTGGSTYYPDSVEGRFTISRDNAKRMVYLQMNSLRAEDTAVYYCAAAGVRAEQGRVRTLPSEYTFWGQGTQVTVSS
On to B3, for which the Kd with A1 domain of vWF [1] came out at 1.1 nM. In the assay with A1 domain of vWF [2], the “% activity after 4 wks” value was found to be 97.6% and the “% activity after 8 wks” value came to 90.8%.

B4: SEQ ID NO: 2 D62E (VHH)
VHH: EVQLVESGGGLVQPGGSLRLSCAASGRTFSYNPMGWFRQAPGKGRELVAAISRTGGSTYYPESVEGRFTISRDNAKRMVYLQMNSLRAEDTAVYYCAAAGVRAEDGRVRTLPSEYTFWGQGTQVTVSS
Take B4: the Kd in the assay with A1 domain of vWF [1] came to 1.3 nM. In addition, in the assay with A1 domain of vWF [2], the “% activity after 4 wks” value is 89.6% and the “% activity after 8 wks” value worked out at 80.2%.

B5: SEQ ID NO: 2 M34A (VHH)
VHH: EVQLVESGGGLVQPGGSLRLSCAASGRTFSYNPAGWFRQAPGKGRELVAAISRTGGSTYYPDSVEGRFTISRDNAKRMVYLQMNSLRAEDTAVYYCAAAGVRAEDGRVRTLPSEYTFWGQGTQVTVSS
In the case of B5, the Kd with A1 domain of vWF [4] came to 1.96 nM.

B6: SEQ ID NO: 2 D105A (VHH)
VHH: EVQLVESGGGLVQPGGSLRLSCAASGRTFSYNPMGWFRQAPGKGRELVAAISRTGGSTYYPDSVEGRFTISRDNAKRMVYLQMNSLRAEDTAVYYCAAAGVRAEAGRVRTLPSEYTFWGQGTQVTVSS
In the case of B6, the dissociation constant (Kd) in the assay with A1 domain of vWF [1] is 9.3 nM. For the same molecule, the “% activity after 8 wks” value in the assay with A1 domain of vWF [2] is 98.7%. In the assay with A1 domain of vWF [5], the “fold drop in affinity against wild type SEQ ID NO: 2” value amounted to 10 fold.

B7: SEQ ID NO: 2 M78A (VHH)
VHH: EVQLVESGGGLVQPGGSLRLSCAASGRTFSYNPMGWFRQAPGKGRELVAAISRTGGSTYYPDSVEGRFTISRDNAKRAVYLQMNSLRAEDTAVYYCAAAGVRAEDGRVRTLPSEYTFWGQGTQVTVSS
On to B7, for which binding with A1 domain of vWF [6] was characterised by a dissociation constant (Kd) of 1.46 nM.

B8: Stab. 12A2H1; SEQ ID NO: 2 with E1D, D62E, M78T, D105Q (VHH)
VHH: DVQLVESGGGLVQPGGSLRLSCAASGRTFSYNPMGWFRQAPGKGRELVAAISRTGGSTYYPESVEGRFTISRDNAKRTVYLQMNSLRAEDTAVYYCAAAGVRAEQGRVRTLPSEYTFWGQGTQVTVSS
notes: also called 12A2H1 SV1; 12A2h1SV1
Turning to B8, in the assay with A1 domain of vWF [7], the Kd stood at 0.986 nM; the off-rate constant (koff) (as a rule, a measure of how fast the partners let go of each other) is 0.0207 s⁻¹; the kon (as a rule, the rate constant with which the complex forms) came to 2.1e+07 M⁻¹ s⁻¹.

B9: SEQ ID NO: 2 D105E (VHH)
VHH: EVQLVESGGGLVQPGGSLRLSCAASGRTFSYNPMGWFRQAPGKGRELVAAISRTGGSTYYPDSVEGRFTISRDNAKRMVYLQMNSLRAEDTAVYYCAAAGVRAEEGRVRTLPSEYTFWGQGTQVTVSS
Consider B9, for which the Kd in the assay with A1 domain of vWF [1] was 4.4 nM. Also, in the assay with A1 domain of vWF [2], the “% activity after 8 wks” value came to 98.8%.

B10: SEQ ID NO: 2 D105S (VHH)
VHH: EVQLVESGGGLVQPGGSLRLSCAASGRTFSYNPMGWFRQAPGKGRELVAAISRTGGSTYYPDSVEGRFTISRDNAKRMVYLQMNSLRAEDTAVYYCAAAGVRAESGRVRTLPSEYTFWGQGTQVTVSS
In turn, B10 displayed a Kd with A1 domain of vWF [1] of 3.7 nM. In addition, in the assay with A1 domain of vWF [2], the “% activity after 4 wks” value came to 93.7% and the “% activity after 8 wks” value was 94.2%.

B11: SEQ ID NO: 2 D105T (VHH)
VHH: EVQLVESGGGLVQPGGSLRLSCAASGRTFSYNPMGWFRQAPGKGRELVAAISRTGGSTYYPDSVEGRFTISRDNAKRMVYLQMNSLRAEDTAVYYCAAAGVRAETGRVRTLPSEYTFWGQGTQVTVSS
In the case of B11, the affinity in the assay with A1 domain of vWF [1], expressed as Kd, was 7.2 nM. Moreover, in the assay with A1 domain of vWF [2], the “% activity after 4 wks” value turned out to be 101% and the “% activity after 8 wks” value was determined as 96%.

B12: SEQ ID NO: 2 D105N (VHH)
VHH: EVQLVESGGGLVQPGGSLRLSCAASGRTFSYNPMGWFRQAPGKGRELVAAISRTGGSTYYPDSVEGRFTISRDNAKRMVYLQMNSLRAEDTAVYYCAAAGVRAENGRVRTLPSEYTFWGQGTQVTVSS
On to B12, for which, in the assay with A1 domain of vWF [1], the Kd came to 0.8 nM. Further, in the assay with A1 domain of vWF [2], the “% activity after 4 wks” value is 29.5% and the “% activity after 8 wks” value was determined as 32.7%.

B13: SEQ ID NO: 2 S63G (VHH)
VHH: EVQLVESGGGLVQPGGSLRLSCAASGRTFSYNPMGWFRQAPGKGRELVAAISRTGGSTYYPDGVEGRFTISRDNAKRMVYLQMNSLRAEDTAVYYCAAAGVRAEDGRVRTLPSEYTFWGQGTQVTVSS
For B13, binding with A1 domain of vWF [1] was characterised by a dissociation constant (Kd) of 1.2 nM. In the assay with A1 domain of vWF [2], the “% activity after 4 wks” value was 95.5% and the “% activity after 8 wks” value came out at 83.8%.

B14: RANKL-1_D62E (VHH)
VHH: EVQLVESGGGLVQPGGSLRLSCAASGFTFSSYPMGWFRQAPGKGREFVSSITGSGGSTYYAESVKGRFTISRDNAKNTLYLQMNSLRPEDTAVYYCAAYIRPDTYLSRDYRKYDYWGQGTLVTVSS
notes: Expressed from pAX054 in the periplasm of E. coli; not shown: C-terminal c-myc tag and (His)6 tag coded by vector pAX054
Consider B14, for which the “IC50 (read off the curve)” value with human RANKL [8] was around 0.1 nM.

B15: RANKL-1 (VHH)
VHH: EVQLVESGGGLVQPGGSLRLSCAASGFTFSSYPMGWFRQAPGKGREFVSSITGSGGSTYYADSVKGRFTISRDNAKNTLYLQMNSLRPEDTAVYYCAAYIRPDTYLSRDYRKYDYWGQGTLVTVSS
notes: as for B14
As for B15, the “IC50 (read off the curve)” value in the assay with human RANKL [8] is around 0.1 nM. The IC50 (usually the concentration at which inhibition is half-maximal) in the assay with human RANKL [9] came to 0.114 nM.

B16: SEQ ID NO: 1, ALX-0081 (VHH)
chain: EVQLVESGGGLVQPGGSLRLSCAASGRTFSYNPMGWFRQAPGKGRELVAAISRTGGSTYYPDSVEGRFTISRDNAKRMVYLQMNSLRAEDTAVYYCAAAGVRAEDGRVRTLPSEYTFWGQGTQVTVSSAAAEVQLVESGGGLVQPGGSLRLSCAASGRTFSYNPMGWFRQAPGKGRELVAAISRTGGSTYYPDSVEGRFTISRDNAKRMVYLQMNSLRAEDTAVYYCAAAGVRAEDGRVRTLPSEYTFWGQGTQVTVSS
notes: Produced in E. coli; also called BATCH 1; RPC main peak
For B16, the “potency relative to reference SEQ ID NO:1” value worked out at 91.9% in the assay with A1 domain of vWF [10] and 50% with A1 domain of vWF [11].

B17: SEQ ID NO: 1 RPC post-peak 1 (single norleucine mis-incorporation, -18 Da) (VHH)
chain: EVQLVESGGGLVQPGGSLRLSCAASGRTFSYNPMGWFRQAPGKGRELVAAISRTGGSTYYPDSVEGRFTISRDNAKRMVYLQMNSLRAEDTAVYYCAAAGVRAEDGRVRTLPSEYTFWGQGTQVTVSSAAAEVQLVESGGGLVQPGGSLRLSCAASGRTFSYNPMGWFRQAPGKGRELVAAISRTGGSTYYPDSVEGRFTISRDNAKRMVYLQMNSLRAEDTAVYYCAAAGVRAEDGRVRTLPSEYTFWGQGTQVTVSS
modifications: norleucine in place of one methionine (site not determined), -18 Da
notes: Collected from RP-HPLC and reconstituted before the potency assay; also called -18Da product related variant
Take B17: the “potency relative to reference SEQ ID NO:1” value with A1 domain of vWF [10] amounted to 51.6%; with A1 domain of vWF [11] it was 81%.

B18: SEQ ID NO: 1 E1Q, fraction E1Q-a (cyclized pyroglutamate form) (VHH)
chain: QVQLVESGGGLVQPGGSLRLSCAASGRTFSYNPMGWFRQAPGKGRELVAAISRTGGSTYYPDSVEGRFTISRDNAKRMVYLQMNSLRAEDTAVYYCAAAGVRAEDGRVRTLPSEYTFWGQGTQVTVSSAAAEVQLVESGGGLVQPGGSLRLSCAASGRTFSYNPMGWFRQAPGKGRELVAAISRTGGSTYYPDSVEGRFTISRDNAKRMVYLQMNSLRAEDTAVYYCAAAGVRAEDGRVRTLPSEYTFWGQGTQVTVSS
modifications: N-terminal pyroglutamate (cyclized Q1)
notes: Fraction of the E1Q mutant from a monoS column; mass 27857 Da
As to B18, in the assay with A1 domain of vWF [12], the “potency relative to BATCH 1 (average)” value was found to be 105%.

The values are drawn from patent publication US20110183861A1 (ABLYNN N V, published 2011).
